The values that follow come from paper PMC5524640, “Evasion of immunosurveillance by genomic alterations of PPARγ/RXRα in bladder cancer” (Nature Communications, 2017).

Changes are numbered by the printed parent chain. In names and notes the source's numbering stands.

The stoichiometry N is the number of molecules, sites or subunits per partner or assembly.

Data set [1] concerns the molecule itself. The data set is described as follows: SEC; 16/60 Sephacryl S-300 in 25 mM Tris-HCl pH 8.0, 100 mM NaCl, 10% glycerol, 1 mM TCEP; no exogenous ligand; tetramer and monomer peaks.
The target of data set [2] is T1, His-TEV-PPARγ (234-505) (human, UniProt P37231 234-505).
T1 construct: The methods name no species for the bacterial construct; No tag cleavage is described for this preparation; also called PPARg; source: E. coli, purified (Ni-NTA, size exclusion chromatography)
T1 sequence (looked up): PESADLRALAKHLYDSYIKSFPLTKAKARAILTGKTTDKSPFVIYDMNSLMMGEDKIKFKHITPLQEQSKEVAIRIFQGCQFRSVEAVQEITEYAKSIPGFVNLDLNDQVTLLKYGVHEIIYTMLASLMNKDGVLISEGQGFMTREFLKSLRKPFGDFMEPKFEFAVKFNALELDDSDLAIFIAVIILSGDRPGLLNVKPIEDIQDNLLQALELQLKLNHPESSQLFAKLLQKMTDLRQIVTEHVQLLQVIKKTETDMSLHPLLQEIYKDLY
The data set is described as follows: SEC; analytical, 10/300 Superdex 200; equivalent molar volumes loaded; heterodimer formed by mixing the two proteins at a 1:1 molar ratio; no ligand. The settings on record: both partners purified. For orientation: Size exclusion chromatography separates by hydrodynamic size, large species first.

In data set [3] the target is T2, His-TEV-RXRα-WT (223-462) (Homo sapiens (Human), UniProt P19793).
T2 chain: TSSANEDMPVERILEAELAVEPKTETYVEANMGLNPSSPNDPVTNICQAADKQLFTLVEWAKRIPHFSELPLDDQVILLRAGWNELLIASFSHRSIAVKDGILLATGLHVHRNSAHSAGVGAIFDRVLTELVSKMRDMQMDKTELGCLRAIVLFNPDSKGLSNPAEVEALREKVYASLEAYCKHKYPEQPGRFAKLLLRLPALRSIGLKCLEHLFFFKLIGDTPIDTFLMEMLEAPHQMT
The data set is described as follows: SPR; monomer fraction of RXRα WT used (apo tetramer is inactive). On the technique in general: Surface plasmon resonance follows binding to a sensor surface in real time, without labels.

Data set [4] concerns the target T3, His-TEV-RXRα-S427F (223-462) (Homo sapiens (Human), UniProt P19793).
T3 chain: T2 chain with S205F
Briefly: SPR (also analytical size exclusion chromatography); S427F mutant of RXRα; binding seen without added ligand.

B1: His-TEV-RXRα-WT (223-462) (domain or fragment, human, UniProt P19793 223-462, looked up)
chain: T2 chain
With B1, the “stoichiometry N” value in data set [1] was 4.

B2: His-TEV-RXRα-S427F (223-462) (domain or fragment, human, UniProt P19793 223-462, looked up)
chain: T2 chain with S205F
notes: S427F is a recurrent mutation found in patients' tumours; No tag cleavage is described for this preparation; also called the mutant; source: E. coli, purified (Ni-NTA, size exclusion chromatography)
In the case of B2, in data set [2], the binding result was “binds”.

B3: His-TEV-PPARγ (234-505) (protein)
chain: T1 sequence (looked up)
Turning to B3, the binding result in data set [3] and in data set [4] was “binds” each time.
